This series concerns Escherichia coli TOP10. Briefly: shrunken log2 fold change of peptide-encoding DNA abundance (4.5 h post-induction vs induction); higher = less antimicrobial activity (less host growth inhibition). As to conditions: time post-induction: 4.5 h; library: site-saturation at positions 5, 18, 19, 20.

The record followed here is the supplement of paper PMC9112550, “Optimization of the antimicrobial peptide Bac7 by deep mutational scanning” (BMC Biology, 2022).
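Note: peptides expressed intracellularly from a pBAD plasmid library in pooled LB shake-flask culture, induced with 0.3% L-arabinose, DNA abundance read by NGS, three biological replicates, DESeq2 with apeglm shrinkage.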

With RRIRWRPPRLPRPRPRPPENPRP, the “shrunken log2 fold change” value came out at 0.0933. For the sequence RRIRWRPPRLPRPRPRPIRVPRP, the “shrunken log2 fold change” value turned out to be 0.0983. With RRIRPRPPRLPRPRPRPVDAPRP, the “shrunken log2 fold change” value was determined as 0.173. RRIRRRPPRLPRPRPRPEVLPRP: the “shrunken log2 fold change” value stood at 0.211. Regarding RRIRIRPPRLPRPRPRPLWLPRP, the “shrunken log2 fold change” value was -0.208. With RRIRLRPPRLPRPRPRPGNCPRP the figure was -0.0913; with RRIRARPPRLPRPRPRPHLHPRP, 0.0371.

Regarding RRIRLRPPRLPRPRPRPIMFPRP, the “shrunken log2 fold change” value was -0.488.

With RRIRARPPRLPRPRPRPCEEPRP, the “shrunken log2 fold change” value came out at 0.622. Regarding RRIRMRPPRLPRPRPRPSDHPRP, the “shrunken log2 fold change” value amounted to 0.386. With RRIRRRPPRLPRPRPRPQHRPRP, the “shrunken log2 fold change” value is 0.266. With RRIRWRPPRLPRPRPRPQTEPRP, the “shrunken log2 fold change” value was 0.0468. For RRIRQRPPRLPRPRPRPAYMPRP, the “shrunken log2 fold change” value was -0.263. For the sequence RRIRFRPPRLPRPRPRPCQKPRP, the “shrunken log2 fold change” value stood at 0.033.

With RRIRIRPPRLPRPRPRPTTMPRP, the “shrunken log2 fold change” value was -0.394. Consider RRIRQRPPRLPRPRPRPMDWPRP, for which the “shrunken log2 fold change” value was 0.0912. With RRIRYRPPRLPRPRPRPEPNPRP the figure was -0.0357; with RRIRERPPRLPRPRPRPNIQPRP, -0.357; with RRIRVRPPRLPRPRPRPSCFPRP, -0.264. The value for RRIRMRPPRLPRPRPRPWHVPRP was -0.0444; that for RRIRTRPPRLPRPRPRPFKFPRP was -0.0637; that for RRIRRRPPRLPRPRPRPIVPPRP was 0.605.

On to RRIRGRPPRLPRPRPRPTQMPRP, for which the “shrunken log2 fold change” value was 0.924. Take RRIRRRPPRLPRPRPRPDFFPRP: the “shrunken log2 fold change” value is -0.00974. For RRIRDRPPRLPRPRPRPCCFPRP, the “shrunken log2 fold change” value is 0.395.

Regarding RRIRARPPRLPRPRPRPVPSPRP, the “shrunken log2 fold change” value is 0.181. Regarding RRIRKRPPRLPRPRPRPHHFPRP, the “shrunken log2 fold change” value was -0.0062. Take RRIRARPPRLPRPRPRPPMYPRP: the “shrunken log2 fold change” value was -0.147.

Take RRIRFRPPRLPRPRPRPHFIPRP: the “shrunken log2 fold change” value is -0.473. Turning to RRIRHRPPRLPRPRPRPIMEPRP, the “shrunken log2 fold change” value was -0.545. On to RRIRGRPPRLPRPRPRPTMGPRP, for which the “shrunken log2 fold change” value amounted to 0.875.

RRIRERPPRLPRPRPRPDKGPRP: the “shrunken log2 fold change” value was -0.0116. Turning to RRIRFRPPRLPRPRPRPDWMPRP, the “shrunken log2 fold change” value is -0.0628.

In the case of RRIRVRPPRLPRPRPRPNKPPRP, the “shrunken log2 fold change” value was -0.0479. As for RRIRCRPPRLPRPRPRPRFWPRP, the “shrunken log2 fold change” value came to 0.167. Consider RRIRLRPPRLPRPRPRPQLWPRP, for which the “shrunken log2 fold change” value is -0.195. With RRIRYRPPRLPRPRPRPYNEPRP the figure was -1.3. With RRIRARPPRLPRPRPRPITSPRP, the “shrunken log2 fold change” value was determined as 0.157.

As to RRIRGRPPRLPRPRPRPWRYPRP, the “shrunken log2 fold change” value was 0.122.

For RRIRGRPPRLPRPRPRPNKRPRP, the “shrunken log2 fold change” value is 0.26.

Consider RRIRCRPPRLPRPRPRPPILPRP, for which the “shrunken log2 fold change” value is -0.501. The value for RRIRPRPPRLPRPRPRPNMLPRP was -0.367; that for RRIRFRPPRLPRPRPRPLEYPRP was -0.474; that for RRIRHRPPRLPRPRPRPSADPRP was -0.428. For the sequence RRIRSRPPRLPRPRPRPKYWPRP, the “shrunken log2 fold change” value is -0.166.

As to RRIRPRPPRLPRPRPRPYSVPRP, the “shrunken log2 fold change” value is -1.01. Turning to RRIRNRPPRLPRPRPRPQCNPRP, the “shrunken log2 fold change” value was -0.468. Consider RRIRVRPPRLPRPRPRPALAPRP, for which the “shrunken log2 fold change” value came out at 0.484.

With RRIRGRPPRLPRPRPRPYQIPRP, the “shrunken log2 fold change” value was -0.118. Take RRIRKRPPRLPRPRPRPLHCPRP: the “shrunken log2 fold change” value was 0.0213. For RRIRFRPPRLPRPRPRPAKKPRP, the “shrunken log2 fold change” value turned out to be 0.188. RRIRLRPPRLPRPRPRPVALPRP: the “shrunken log2 fold change” value was 0.0145.

Consider RRIRSRPPRLPRPRPRPNPIPRP, for which the “shrunken log2 fold change” value came to 0.0127. For the sequence RRIRSRPPRLPRPRPRPHYWPRP, the “shrunken log2 fold change” value is -0.519.

Consider RRIRLRPPRLPRPRPRPYECPRP, for which the “shrunken log2 fold change” value was -0.352. Take RRIRCRPPRLPRPRPRPMCYPRP: the “shrunken log2 fold change” value was -0.244.

With RRIRKRPPRLPRPRPRPVPQPRP, the “shrunken log2 fold change” value was determined as 0.313.

With RRIRHRPPRLPRPRPRPPPNPRP, the “shrunken log2 fold change” value worked out at 0.814. The value for RRIRARPPRLPRPRPRPFPRPRP was 0.0695; that for RRIRERPPRLPRPRPRPLDGPRP was -0.0344. On to RRIRCRPPRLPRPRPRPNMDPRP, for which the “shrunken log2 fold change” value is -0.431. Consider RRIRPRPPRLPRPRPRPVMSPRP, for which the “shrunken log2 fold change” value is 0.0198. As to RRIRKRPPRLPRPRPRPLTEPRP, the “shrunken log2 fold change” value worked out at 0.397. Take RRIRPRPPRLPRPRPRPFQAPRP: the “shrunken log2 fold change” value was -0.216.

For RRIRSRPPRLPRPRPRPNTYPRP, the “shrunken log2 fold change” value is -0.232.

For the sequence RRIRNRPPRLPRPRPRPPTQPRP, the “shrunken log2 fold change” value came out at 0.267. Turning to RRIRARPPRLPRPRPRPSMRPRP, the “shrunken log2 fold change” value was found to be 1.03.

RRIRWRPPRLPRPRPRPVKAPRP: the “shrunken log2 fold change” value is 0.284. On to RRIRWRPPRLPRPRPRPTNTPRP, for which the “shrunken log2 fold change” value is -0.284. In the case of RRIRPRPPRLPRPRPRPSMSPRP, the “shrunken log2 fold change” value is -0.409. With RRIRGRPPRLPRPRPRPSKQPRP, the “shrunken log2 fold change” value was -0.0392. For RRIRKRPPRLPRPRPRPLPYPRP, the “shrunken log2 fold change” value was -0.0627. In the case of RRIRARPPRLPRPRPRPASFPRP, the “shrunken log2 fold change” value turned out to be 0.387.

RRIRIRPPRLPRPRPRPLFQPRP: the “shrunken log2 fold change” value is -0.394. For the sequence RRIRNRPPRLPRPRPRPKTIPRP, the “shrunken log2 fold change” value was -0.14. The value for RRIRCRPPRLPRPRPRPGQTPRP was 0.0466. The value for RRIRPRPPRLPRPRPRPFTLPRP was -0.379; that for RRIRGRPPRLPRPRPRPTGPPRP was 0.692; that for RRIRERPPRLPRPRPRPRCLPRP was 0.0247. With RRIRVRPPRLPRPRPRPQVDPRP the figure was 0.00887; with RRIRWRPPRLPRPRPRPHTLPRP, -0.325; with RRIRRRPPRLPRPRPRPVVDPRP, 0.372. As for RRIRNRPPRLPRPRPRPEMPPRP, the “shrunken log2 fold change” value is -0.0738.

Regarding RRIRKRPPRLPRPRPRPQDKPRP, the “shrunken log2 fold change” value was -0.182. With RRIRTRPPRLPRPRPRPARTPRP, the “shrunken log2 fold change” value came to 0.381.

Take RRIRCRPPRLPRPRPRPPRTPRP: the “shrunken log2 fold change” value came to 0.818.

In the case of RRIRHRPPRLPRPRPRPPPYPRP, the “shrunken log2 fold change” value came to 0.00808.

As to RRIRWRPPRLPRPRPRPSEDPRP, the “shrunken log2 fold change” value turned out to be 0.145.

For the sequence RRIRLRPPRLPRPRPRPDQMPRP, the “shrunken log2 fold change” value is -0.0132. With RRIRVRPPRLPRPRPRPDRGPRP the figure was -0.0555. For RRIRTRPPRLPRPRPRPTCFPRP, the “shrunken log2 fold change” value was -0.35. Consider RRIRGRPPRLPRPRPRPGTTPRP, for which the “shrunken log2 fold change” value came to 0.379.

Consider RRIRNRPPRLPRPRPRPPTWPRP, for which the “shrunken log2 fold change” value came to 0.434. As for RRIRRRPPRLPRPRPRPTMQPRP, the “shrunken log2 fold change” value was determined as 0.275. Regarding RRIRHRPPRLPRPRPRPEIKPRP, the “shrunken log2 fold change” value was -0.264.

As for RRIRTRPPRLPRPRPRPECEPRP, the “shrunken log2 fold change” value amounted to 0.154. As to RRIRKRPPRLPRPRPRPWRWPRP, the “shrunken log2 fold change” value was 0.595.

RRIRKRPPRLPRPRPRPLQSPRP: the “shrunken log2 fold change” value turned out to be 0.295. Turning to RRIRRRPPRLPRPRPRPVPHPRP, the “shrunken log2 fold change” value came to 0.449. Regarding RRIRWRPPRLPRPRPRPCCDPRP, the “shrunken log2 fold change” value is 0.0279. Take RRIRWRPPRLPRPRPRPEPQPRP: the “shrunken log2 fold change” value came out at 0.818. In the case of RRIRVRPPRLPRPRPRPQVGPRP, the “shrunken log2 fold change” value is 0.251. With RRIRCRPPRLPRPRPRPGVCPRP the figure was 0.117. Consider RRIRWRPPRLPRPRPRPRNTPRP, for which the “shrunken log2 fold change” value is -0.0542. Regarding RRIRWRPPRLPRPRPRPMHAPRP, the “shrunken log2 fold change” value amounted to 0.542. For RRIRCRPPRLPRPRPRPCSLPRP, the “shrunken log2 fold change” value is -0.477. Regarding RRIRKRPPRLPRPRPRPCCRPRP, the “shrunken log2 fold change” value is 0.146. As for RRIRFRPPRLPRPRPRPVELPRP, the “shrunken log2 fold change” value was -0.00737. Take RRIRARPPRLPRPRPRPWATPRP: the “shrunken log2 fold change” value was found to be 0.494.

Turning to RRIRARPPRLPRPRPRPGPDPRP, the “shrunken log2 fold change” value is 0.455.

As to RRIRDRPPRLPRPRPRPCWFPRP, the “shrunken log2 fold change” value was -0.0292. RRIRSRPPRLPRPRPRPAHLPRP: the “shrunken log2 fold change” value came out at 0.27. Consider RRIRDRPPRLPRPRPRPKHYPRP, for which the “shrunken log2 fold change” value was -0.491.

On to RRIRGRPPRLPRPRPRPDPKPRP, for which the “shrunken log2 fold change” value came to 0.649. As for RRIRRRPPRLPRPRPRPRYMPRP, the “shrunken log2 fold change” value was -0.378.

As to RRIRDRPPRLPRPRPRPYAYPRP, the “shrunken log2 fold change” value was found to be 0.0345. For RRIRWRPPRLPRPRPRPCDGPRP, the “shrunken log2 fold change” value is 0.0333. Turning to RRIRGRPPRLPRPRPRPPEGPRP, the “shrunken log2 fold change” value was found to be 1.15. Take RRIRHRPPRLPRPRPRPRGKPRP: the “shrunken log2 fold change” value is -0.241.

On to RRIRRRPPRLPRPRPRPHTLPRP, for which the “shrunken log2 fold change” value was -0.182.

Turning to RRIRNRPPRLPRPRPRPFQQPRP, the “shrunken log2 fold change” value was -0.00931. For RRIRCRPPRLPRPRPRPEWYPRP, the “shrunken log2 fold change” value was -0.256. Take RRIRHRPPRLPRPRPRPACMPRP: the “shrunken log2 fold change” value was 0.0463. With RRIRFRPPRLPRPRPRPPQHPRP the figure was 0.108; with RRIRCRPPRLPRPRPRPAQEPRP, 0.101.
